The values that follow come from paper PMC3098718.

The target in experiment [1] is FLAG::NOS-3 (S644E, T648E), phospho-mimetic (C. elegans). Put plainly: pull-down.
Experiment [2] has the same target. In words: pull-down. This is another data set of the same source.

Several values for one entry are separate records, joined by “and”; a condition that tells them apart may be missing. Identical values can stand only once. Like-named read-outs stand apart in the source and are kept apart here.

B1: FBF-1 (natural protein)
chain: MDQSKMRYTNQFRKTPQKPTSTEVGNHHTPAHSPMAQHETSMWNFNSLNPYFSMLNMNDGMNYARHQQNHIVTSRPPTPLTDLMSLRSFQSFPNVFMPVSRSRTSSFIQSDTDSSRLEPDDFSQNVRYCSTEIDRNNSSSKNDHLKYSRPALSRNSRSFTRSNNVLPTWSLDSNGEMRSRLSLSEVLDSGDLMKFAVDKTGCQFLEKAVKGSLTSYQKFQLFEQVIGRKDDFLKLSTNIFGNYFVQEIIGMSLTTYDDDNIKRQEKLKNFISSQMTDMCLDKFACRVIQSSLQNMDLSLACKLVQALPRDARLIAICVDQNANHVIQKVVAVIPLKNWEFIVDFVATPEHLRQICFDKYGCRVVQTIIEKLTADSINVDLTSAAQHLRERALQRLMTSVTNRCQELATNEYANYIIQHIVSNDDLAVYRECIIEKCLMRNLLSLSQEKFASHVVEKAFLHAPMELLAEMMDEIFDGYMPHPGTGKDALDIMMFHQFGNYVVQCMLTICCDAVSGRRQTKEGSYDHANSFQVWLKKLHSRVTKERHRLSRFSSGKKMIETLAHLRSTHPIYGLQSSGHESFKTDCFSTASEHDGLELEKNGIEEGNLRLMRTFSP
modifications: S^35 labeled methionine
As for B1, the fold reduction of FBF-1 binding compared to wild-type NOS-3 in experiment [1] is 17 fold and > 20 fold; in experiment [2], 14 fold.
